Biological target: ACM2 variant of AC fused to GFP (ACM2-GFP), encoded by plasmid pACM2-Gfp (Bordetella pertussis | not stated) (UniProt P0DKX7)
Assay: two-hybrid

Substance: calmodulin (CaM) with a 6-histidine tag at its N-terminus and a tetra-cysteine tag at its C-terminus, encoded by plasmid pTCam (from UniProt P0DP23 1-149) (natural protein)
- ß gal (Rel. Units): 8 Rel. Units

Source: PMC13334617
